Laboratory results from patent US20240116984A1 (published 2024).
Starred links: 1 amine or outer side, 2 acyl side, 3 side chain; linkers in the order of their positions; H or OH if unused. Non-standard residues stand in square brackets, D forms with d. Primed or numbered codes have the meaning given here. aTyr = Tyr with backbone N-amino (N-aminated amide nitrogen), NN([C@@H](Cc1ccc(O[*:3])cc1)C(=O)[*:2])[*:1]; aIle′ = Ile with backbone N-amino (N-aminated amide nitrogen), CC[C@H](C)[C@@H](C(=O)[*:2])N(N)[*:1]; aVal = Val with backbone N-amino (N-aminated amide nitrogen), CC(C)[C@@H](C(=O)[*:2])N(N)[*:1]; N(NH2)Lys = NCCCC[C@H](NN)C(=O)O

B1: Compound 12, Ac-Val-Gln-aIle-Val-aTyr-Lys-NH2 (peptide)
peptide: Ac-VQ[aIle′]V[aTyr]K-NH2
SMILES: CC[C@H](C)[C@@H](C(=O)N[C@H](C(=O)N(N)[C@@H](Cc1ccc(O)cc1)C(=O)N[C@@H](CCCCN)C(N)=O)C(C)C)N(N)C(=O)[C@H](CCC(N)=O)NC(=O)[C@@H](NC(C)=O)C(C)C
B2: Compound 4, Ac-aVal-Gln-aIle-Ile-Asn-Lys-NH2 (peptide)
peptide: Ac-[aVal]Q[aIle′]INK-NH2
SMILES: CC[C@H](C)[C@H](NC(=O)[C@H]([C@@H](C)CC)N(N)C(=O)[C@H](CCC(N)=O)NC(=O)[C@H](C(C)C)N(N)C(C)=O)C(=O)N[C@@H](CC(N)=O)C(=O)N[C@@H](CCCCN)C(N)=O
B3: Compound 13, Ac-Val-Gln-Ile-aVal-Tyr-aLys-NH2 (peptide)
peptide: Ac-VQI[aVal]Y[N(NH2)Lys]-NH2
SMILES: CC[C@H](C)[C@H](NC(=O)[C@H](CCC(N)=O)NC(=O)[C@@H](NC(C)=O)C(C)C)C(=O)N(N)[C@H](C(=O)N[C@@H](Cc1ccc(O)cc1)C(=O)N(N)[C@@H](CCCCN)C(N)=O)C(C)C

Each binder was assayed against Human tauP301L (0N4R), recombinant, N-terminal His tag (UniProt P10636 2-758) (assay: capping of pre-formed Tau P301L fibers, inhibition of seeding in HEK293 tau-RD-YFP cells).
Sequence of Human tauP301L (0N4R), recombinant, N-terminal His tag (P10636 other isoform, or with tags, fused parts or gaps): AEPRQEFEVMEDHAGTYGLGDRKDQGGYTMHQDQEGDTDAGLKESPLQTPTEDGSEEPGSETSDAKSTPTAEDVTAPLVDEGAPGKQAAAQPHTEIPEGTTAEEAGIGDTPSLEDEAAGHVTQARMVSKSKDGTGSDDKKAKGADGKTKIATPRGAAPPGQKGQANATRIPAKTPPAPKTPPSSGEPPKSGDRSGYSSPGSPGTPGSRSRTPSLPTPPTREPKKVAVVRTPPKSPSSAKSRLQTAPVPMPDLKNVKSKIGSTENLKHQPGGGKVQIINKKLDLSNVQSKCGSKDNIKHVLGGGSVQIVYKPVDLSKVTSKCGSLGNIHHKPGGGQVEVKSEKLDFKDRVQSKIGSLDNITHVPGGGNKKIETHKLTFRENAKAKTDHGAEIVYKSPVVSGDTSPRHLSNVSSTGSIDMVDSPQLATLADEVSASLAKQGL

Compared with B1, B2 is higher in IC50: 4.8 µM for the first, > 20 µM for the second.

B3 was tested, and the IC50 was 4.7 µM.
